The source of these data is article PMC10583366, “OsCBL1 modulates rice nitrogen use efficiency via negative regulation of OsNRT2.2 by OsCCA1”.

The chains are these.
B1: P6 (dsDNA)
DNA 1: TAAAAAATACCTGCAGGTGCTCTAGTTCAACTGAAGGGCCAGATTTAGCAATATCTGAGTCCTTCAAATAAATTCATCAACTAACAAACTTCAACCGAAG
DNA 2: CTTCGGTTGAAGTTTGTTAGTTGATGAATTTATTTGAAGGACTCAGATATTGCTAAATCTGGCCCTTCAGTTGAACTAGAGCACCTGCAGGTATTTTTTA
B2: P8 (dsDNA)
DNA 1: CTTCAGGCCGTCATGAAAAAAAACCAGTGCATATCTCATGGCAAGAAGAAGTGCAGGTTGTGAA
DNA 2: TTCACAACCTGCACTTCTTCTTGCCATGAGATATGCACTGGTTTTTTTTCATGACGGCCTGAAG
B3: P7 (dsDNA)
DNA 1: ATATGATGTGTATGGGAATTGGGATGCTGAAAACAAATGCAACTGGACACATATCTGCAACTTGTAAATAACTTTTATTTCTTTTAATGGAAAAAATGTG
DNA 2: CACATTTTTTCCATTAAAAGAAATAAAAGTTATTTACAAGTTGCAGATATGTGTCCAGTTGCATTTGTTTTCAGCATCCCAATTCCCATACACATCATAT

OsCCA1 (His-OsCCA1; Nhd1), sequence (A0A0P0XBU0 whole entry): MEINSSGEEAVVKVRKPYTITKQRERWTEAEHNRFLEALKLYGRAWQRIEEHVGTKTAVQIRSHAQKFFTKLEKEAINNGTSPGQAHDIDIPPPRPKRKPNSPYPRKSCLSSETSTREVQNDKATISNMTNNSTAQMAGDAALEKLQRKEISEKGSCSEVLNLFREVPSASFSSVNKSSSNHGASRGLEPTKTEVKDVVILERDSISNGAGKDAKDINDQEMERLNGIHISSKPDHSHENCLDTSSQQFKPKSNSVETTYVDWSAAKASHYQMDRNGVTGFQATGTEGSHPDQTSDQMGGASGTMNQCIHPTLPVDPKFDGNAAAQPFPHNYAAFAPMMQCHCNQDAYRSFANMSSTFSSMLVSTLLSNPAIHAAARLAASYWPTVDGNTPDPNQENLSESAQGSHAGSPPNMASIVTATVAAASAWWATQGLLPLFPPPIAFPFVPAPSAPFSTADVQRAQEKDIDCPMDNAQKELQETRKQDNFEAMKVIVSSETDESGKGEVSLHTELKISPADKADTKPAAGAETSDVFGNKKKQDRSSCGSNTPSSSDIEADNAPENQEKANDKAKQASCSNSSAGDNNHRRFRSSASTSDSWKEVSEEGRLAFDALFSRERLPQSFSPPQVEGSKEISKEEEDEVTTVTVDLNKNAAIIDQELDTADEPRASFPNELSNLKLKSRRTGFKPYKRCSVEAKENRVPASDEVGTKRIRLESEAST

This data set has as its target OsCCA1 (His-OsCCA1; Nhd1) (Oryza sativa, UniProt A0A0P0XBU0 1-719). As to the kind of experiment: EMSA; 10 mM Tris-HCl pH 7.5, 50 mM KCl, 1 mM DTT, 4 C, 40 min; 4% TBE-PAGE at 4 C, ethidium bromide stain. The following applies: protein: recombinant; tags: His (pET-28a); ATATCT (motif). A general note: Mobility shift assays separate free from complexed probe on a gel.
As for B1, the binding result was “binds”.

For B2, the binding result was “binds”.

In the case of B3, the binding result is listed as “binds”.
